Consider one protein from PMC10135725, “Vutiglabridin Modulates Paraoxonase 1 and Ameliorates Diet-Induced Obesity in Hyperlipidemic Mice” (Biomolecules, 2023).

Substrate in the data set: CCCCSC1CCC(=O)O1
Description: purified protein. It is filed as biochemical, Homo sapiens. The note with it: 50 mM Tris-HCl pH 8, 1 mM CaCl2, RT, no OX-LA, no vutiglabridin.

B1: Recombinant PON1 (rePON1), carboxy-terminal hexahistidine tag (Homo sapiens) (protein)
chain: AKLIALTLLGMGLALFRNHQSSYQTRLNALREVQPVELPNCNLVKGIETGSEDLEILPNGLAFISSGLKYPGIKSFNPNSPGKILLMDLNEEDPTVLELGITGSKFDVSSFNPHGISTFTDEDNAMYLLVVNHPDAKSTVELFKFQEEEKSLLHLKTIRHKLLPNLNDIVAVGPEHFYGTNDHYFLDPYLQSWEMYLGLAWSYVVYYSPSEVRVVAEGFDFANGINISPDGKYVYIAELLAHKIHVYEKHANWTLTPLKSLDFNTLVDNISVDPETGDLWVGCHPNGMKIFFYDSENPPASEVLRIQNILTEEPKVTQVYAENGTVLQGSTVASVYKGKLLIGTVFHKALYCEL
notes: purified, C-terminal hexahistidine tag, expressed in CHO-K1 cells
For B1, the Km (as a rule, the concentration of substrate that gives half-maximal velocity) was 155.78 µM and the Vmax (commonly the rate approached at saturating substrate) worked out at 92.3 µM/min.
